The text below walks through data of US20250333503A1.

Assay [1] deals with mouse PVRL2 endogenously expressed on B16-F10 cells (mouse) (UniProt P32507). Nature of the assay: FACS dose response on B16-F10 cells.
Assay [2] has as its target mouse PVRL2 splice variant 2 on HEK293 cells (mouse). Nature of the assay: FACS dose response on HEK293 OX mouse PVRL2.

Sequence of mouse PVRL2 endogenously expressed on B16-F10 cells (mouse) (P32507 32-530): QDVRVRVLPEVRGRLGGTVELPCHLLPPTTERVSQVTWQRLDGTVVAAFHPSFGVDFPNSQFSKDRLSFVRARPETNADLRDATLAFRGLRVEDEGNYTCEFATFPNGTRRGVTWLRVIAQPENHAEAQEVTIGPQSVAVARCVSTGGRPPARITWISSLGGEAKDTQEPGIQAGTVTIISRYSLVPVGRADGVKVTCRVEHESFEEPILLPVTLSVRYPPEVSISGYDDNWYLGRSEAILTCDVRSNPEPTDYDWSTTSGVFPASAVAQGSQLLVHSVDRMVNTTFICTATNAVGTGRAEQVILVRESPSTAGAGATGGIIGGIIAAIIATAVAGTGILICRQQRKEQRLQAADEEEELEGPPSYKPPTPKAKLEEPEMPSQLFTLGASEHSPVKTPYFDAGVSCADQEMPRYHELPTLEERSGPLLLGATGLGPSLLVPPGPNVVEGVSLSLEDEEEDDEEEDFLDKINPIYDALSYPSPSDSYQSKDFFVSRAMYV

For the substance “PVRIG mECD-mIg fusion protein (ECD of mouse PVRIG fused to Fc of mouse IgG2a) (Fc fusion)”, the concentration at saturation of binding in assay [1] and in assay [2] was 12.5 µg/mL each time.
